Consider 7 molecules from patent US20030092037A1, “Elk1 phosphorylation related gene” (priority 2001, published 2003).

This experiment has as its system MAP kinase cascade activation. The experiment is described as follows: Reporter activity reflecting MAP kinase cascade activation, corrected using an internal control (Elk1-GAL4 luciferase reporter in 293-EBNA cells). Type of experiment: cell-based, human. The note with it: for Reporter activity corrected with internal control, as a factor of null vector (S/B value): 293-EBNA cells, 24 hours; for Dependence of corrected reporter activity on amount of expression plasmid: plasmid 12.5 ng, 25 ng, 50 ng and 100 ng. On the procedure: (in the presence of 5% CO2). […] The method used for introduction was in accordance with the attached protocol. After culturing for 24 hours at 37° C., reporter activity (firefly luciferase acitivity), which reflects MAP kinase cascade activation, and reporter activity being the internal control (sea pansy luciferase) were measured using Picagene Dual (purchased from Toyo Ink Manufacturing) in accordance with the manufacturer's instructions.
Luciferase activity was measured with Perkin Elmer's Wallac ARVOTMST 1420 MULTILABEL COUNTER.
Reporter activity where an expression plasmid comprising the above gene was introduced, which reflects MAP kinase cascade activation corrected with internal control reporter activity, is shown in Table 1, which is expressed as a factor of the same reporter activity where a null vector was introduced (S/B value).

B1: 28 (protein, listed as Homo sapiens)
chain: MTSFEDADTEETVTCLQMTVYHPGQLQCGIFQSISFNREKLPSSEVVKFGRNSNICHYTFQDKQVSRVQFSLQLFKKFNSSVLSFEIKNMSKKTNLIVDSRELGYLNKMDLPYRCMVRFGEYQFLMEKEDGESLEFFETQFILSPRSLLQENNWPPHRPIPEYGTYSLCSSQSSSPTEMDENES
Take B1: the “Dependence of corrected reporter activity on amount of expression plasmid” value (“Dependence” for short) is given as “increases that were dependent on the amount of expression plasmid”. The “Reporter activity corrected with internal control, as a factor of null vector (S/B value)” value (“Reporter activity corrected” below) (25 ng/well expression plasmid) was 1.8. The “Reporter activity corrected” value (50 ng/well expression plasmid) is listed as 2.3. The “Reporter activity corrected” value (100 ng/well expression plasmid) was 2.9.

B2: 26 (protein, listed as Homo sapiens)
chain: MALALAALAAVEPACGSRYQQLQNEEESGEPEQAAGDAPPPYSSISAESAAYFDYKDESGFPKPPSYNVATTLPSYDEAERTKAEATIPLVPGRDEDFVGRDDFDDADQLRIGNDGIFMLTFFMAFLFNWIGFFLSFCLTTSAAGRYGAISGFGLSLIKWILIVRFSTYFPGYFDGQYWLWWVFLVLGFLLFLRGFINYAKVRKMPETFSNLPRTRVLFIY
With B2, the “Dependence” value is on record as “increases that were dependent on the amount of expression plasmid”. Moreover, under “25 ng/well expression plasmid”, the “Reporter activity corrected” value is listed as 1.6. Also, the “Reporter activity corrected” value (50 ng/well expression plasmid) is reported as 3.2. Besides, for the setting “100 ng/well expression plasmid”, the “Reporter activity corrected” value is recorded as 4.1.

B3: 18 (protein, listed as Homo sapiens)
chain: MPVQLSEHPEWNESMHSLRISVGGLPVLASMTKAADPRFRPRWKVILTFFVGAAILWLLCSHRPAPGRPPTHNAHNWRLGQAPANWYNDTYPLSPPQRTPAGIRYRIAVIADLDTESRAQEENTWFSYLKKGYLTLSDSGDKVAVEWDKDHGVLESHLAEKGRGMELSDLIVFNGKLYSVDDRTGVVYQIEGSKAVPWVILSDGDGTVEKGFKAEWLAVREIVRKRWRLVKQVSHVGVLGQWIQR
Take B3: the “Dependence” value is recorded as “increases that were dependent on the amount of expression plasmid”. Besides, where the note is “25 ng/well expression plasmid”, the “Reporter activity corrected” value was found to be 1.8. Further, for the setting “50 ng/well expression plasmid”, the “Reporter activity corrected” value is listed as 2.3. Moreover, the “Reporter activity corrected” value (100 ng/well expression plasmid) came to 2.9.

B4: 12 (protein, listed as Homo sapiens)
chain: MDHHQPGTGRYQVLLNEEDNSESSAIEQPPTSNPAPQIVQAASSAPALETDSSPPPYSSITVEVPTTSDTEVYGEFYPVPPPYSVATSLPTYDEAEKAKAAAMAAAAAETSQRIQEEECPPRDDFSDADQLRVGNDGIFMLAFFMAFIFNWLGFCLSFCITNTIAGRYGAICGFGLSLIKWILIVRFSDYFTGYFNGQYWLWWIFLVLGLLLFFRGFVNYLKVRNMSESMAAAHRTRYFFLL
Regarding B4, the “Dependence” value was “increases that were dependent on the amount of expression plasmid”. Moreover, the “Reporter activity corrected” value (25 ng/well expression plasmid) came to 2.1. The “Reporter activity corrected” value (50 ng/well expression plasmid) is reported as 2.7. In addition, the “Reporter activity corrected” value (100 ng/well expression plasmid) was determined as 3.9.

B5: 16 (protein, listed as Homo sapiens)
chain: MSSLGGGSQDAGGSSSSSTNGSGGSGSSGPKAGAADKSAVVAAAAPASVADDTPPPERRNKSGIISEPLNKSLRRSRPLSHYSSFGSSGGSGGGSMMGGESADKATAAAAAASLLANGHDLAAAMAVDKSNPTSKHKSGAVASLLSKAERATELAAEGQLTLQQFAQSTEMLKRVVQEHLPLMSEAGAGLPDMEAVAGAEALNGQSDFPYLGAFPINPGLFIMTPAGVFLAESALHMAGLAEYPMQGELASAISSGKKKRKRCGMCAPCRRRINCEQCSSCRNRKTGHQICKFRKCEELKKKPSAALEKVMLPTGAAFRWFQ
Take B5: the “Dependence” value is given as “increases that were dependent on the amount of expression plasmid”. Also, where the note is “25 ng/well expression plasmid”, the “Reporter activity corrected” value is reported as 3.4. Besides, under “50 ng/well expression plasmid”, the “Reporter activity corrected” value is listed as 8.4. Further, where the note is “100 ng/well expression plasmid”, the “Reporter activity corrected” value is 8.1.

B6: 30 (protein, listed as Homo sapiens)
chain: MDARWWAVVVLAAFPSLGAGGETPEAPPESWTQLWFFRFVVNAAGYASFMVPGYLLVQYFRRKNYLETGRGLCFPLVKACVFGNEPKASDEVPLAPRTEAAETTPMWQALKLLFCATGLQVSYLTWGVLQERVMTRSYGATATSPGERFTDSQFLVLMNRVLALIVAGLSCVLCKQPRHGAPMYRYSFASLSNVLSSWCQYEALKFVSFPTQVLAKASKVIPVMLMGKLVSRRSYEHWEYLTATLISIGVSMFLLSSGPEPRSSPATTLSGLFTVGSLLEQGALLEGTRFMGRHSEFAAHALLLSICSACGQLFIFYTIGQFGAAVFTIIMTLRQAFAILLSCLLYGHTVTVVGGLGVAVVFAALLLRVYARGRLKQRGKKAVPVESPVQKV
As to B6, the “Dependence” value is “increases that were dependent on the amount of expression plasmid”. For the same molecule, the “Reporter activity corrected” value (25 ng/well expression plasmid) came out at 4.2. Moreover, for the setting “50 ng/well expression plasmid”, the “Reporter activity corrected” value amounted to 6.3. Also, for the setting “100 ng/well expression plasmid”, the “Reporter activity corrected” value came to 7.6.

B7: 6 (protein, listed as Homo sapiens)
chain: MEGPGLGSQCRNHSHGPHPPGFGRYGICAHENKELANAREALPLIEDSSNCDIVKATQYGIFERCKELVEAGYDVRQPDKENVSLLHWAAINNRLDLVKFYISKGAVVDQLGGDLNSTPLHWAIRQGHLPMVILLLQHGADPTLIDGEGFSSIHLAVLFQHMPIIAYLISKGQSVNMTDVNGQTPLMLSAHKVIGPEPTGFLLKFNPSLNVVDKIHQNTPLHWAVAAGNVNAVDKLLEAGSSLDIQNVKGETPLDMALQNKNQLIIHMLKTEAKMRANQKFRLWRWLQKCELFLLLMLSVITMWAIGYILDFNSDSWLLKGCLLVTLFFLTSLFPRFLVGYKNLVYLPTAFLLSSVFWIFMTWFILFFPDLAGAPFYFSFIFSIVAFLYFFYKTWATDPGFTKASEEEKKVNIITLAETGSLDFRTFCTSCLIRKPLRSLHCHVCNCCVARYDQHCLWTGRCIGFGNHHYYIFFLFFLSMVCGWIIYGSFIYLSSHCATTFKEDGLWTYLNQIVACSPWVLYILMLATFHFSWSTFLLLNQLFQIAFLGLTSHERISLQKQSKHMKQTLSLRKTPYNLGFMQNLADFFQCGCFGLVKPCVVDWTSQYTMVFHPAREKVLRSV
On to B7, for which the “Dependence” value is “increases that were dependent on the amount of expression plasmid”. Also, the “Reporter activity corrected” value (25 ng/well expression plasmid) came out at 2.1. Moreover, the “Reporter activity corrected” value (50 ng/well expression plasmid) was determined as 2.4. For the same molecule, for the setting “100 ng/well expression plasmid”, the “Reporter activity corrected” value was 2.9.
